These results are taken from paper PMC8532174.

In this series the target is NS3h_2a(JFH1) helicase, wild type (Hepatitis C virus genotype 2a, isolate …, UniProt Q99IB8 1196-1661). As to the kind of experiment: fluorescence polarization. A general note: In fluorescence polarisation assays a small probe gives low polarisation when free and higher when bound to something large.
Chain of NS3h_2a(JFH1) helicase, wild type (Q99IB8 1196-1661): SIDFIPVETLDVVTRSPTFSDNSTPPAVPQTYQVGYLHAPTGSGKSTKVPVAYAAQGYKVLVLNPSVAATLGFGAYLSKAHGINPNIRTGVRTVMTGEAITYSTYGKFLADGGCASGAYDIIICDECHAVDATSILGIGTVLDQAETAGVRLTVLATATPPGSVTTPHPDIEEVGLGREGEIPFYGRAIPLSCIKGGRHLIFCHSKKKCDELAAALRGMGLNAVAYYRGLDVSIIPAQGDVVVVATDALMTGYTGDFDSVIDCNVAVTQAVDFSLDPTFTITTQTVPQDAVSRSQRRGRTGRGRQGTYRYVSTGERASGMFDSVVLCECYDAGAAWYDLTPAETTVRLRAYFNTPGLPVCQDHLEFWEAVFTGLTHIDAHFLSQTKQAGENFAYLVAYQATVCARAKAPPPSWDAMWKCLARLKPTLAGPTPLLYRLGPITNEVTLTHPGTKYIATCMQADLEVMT

TTTTTTTTTTTTTTT (ssDNA) [Cy5-dT15]: the binding result is reported as “binds”.
